B1: OR4K15 (parent)
chain: GUUAACGGUCAUAGGCCAUGGAAACUAGGAGCACCAUUUCGCUGCCAGUGAAGAAAUGAACAAAGAAAAUCUGGGCCAGGCAGGCAUCAAAAGAAAUAGUCUUGCGCUCAACCAGAAAGUCUGUAAUCAUUUUAAGGGUA

The variants in this data set derive from B1. As to the kind of experiment: self-cleavage, relative activity (ratio to wild type); higher = more cleavage; in vitro, sequencing; the parent is a self-cleaving ribozyme.
Regarding U12A A118G, the self-cleavage was found to be 1.04.

As to A96U U102C, the self-cleavage came out at 2.54.

With U39C A64G, the self-cleavage is 1.88.

For A52G U124A, the self-cleavage is 1.03.

For U9C U97C, the self-cleavage amounted to 1.09.

Turning to U39C A96C, the self-cleavage worked out at 0.78.

For the variant A52U U120C, the self-cleavage turned out to be 1.21.

In the case of U9C C105U, the self-cleavage came to 0.14.

Regarding A91G A135G, the self-cleavage amounted to 1.06.

Turning to A54G A64G, the self-cleavage is 1.77.

With U70C A140G, the self-cleavage was found to be 0.38.

On to A18G A98G, for which the self-cleavage was 0.59.

Regarding A33C A96G, the self-cleavage came out at 2.84.

For the variant G106A A111U, the self-cleavage was 0.

Turning to A63C, the self-cleavage amounted to 1.81.

As for A63U U122C, the self-cleavage worked out at 1.57.

With A36U A51U, the self-cleavage is 1.72.

Consider A59G A117G, for which the self-cleavage stood at 1.71.

Regarding C40U A111G, the self-cleavage was determined as 0.02.

In the case of A55U A110G, the self-cleavage stood at 0.23.

On to A24C A47U, for which the self-cleavage was determined as 0.89.

As for A91U A95G, the self-cleavage worked out at 2.58.

For the variant C85U U127C, the self-cleavage was found to be 0.82.

With U103C U127A, the self-cleavage stood at 1.27.

For the variant G14U A116G, the self-cleavage came to 0.63.

For G31A U122C, the self-cleavage was found to be 2.04.

For A94U U120A, the self-cleavage came out at 2.18.

Regarding A36C A55G, the self-cleavage was determined as 1.7.

Consider A23G G104A, for which the self-cleavage was 0.03.

Regarding U9A A51U, the self-cleavage came to 1.34.

U43A U70A: the self-cleavage turned out to be 0.37.

Regarding A62U A95G, the self-cleavage worked out at 2.47.

As to A125U A135G, the self-cleavage amounted to 0.55.

For U37C A89C, the self-cleavage came to 1.31.

With A18U A30G, the self-cleavage was 1.39.

As to A33G U102C, the self-cleavage stood at 1.44.

Take C16U A118G: the self-cleavage came to 1.16.

Turning to G7C A91G, the self-cleavage came out at 0.76.

Consider A60U A91G, for which the self-cleavage was 1.34.

Regarding G58U A98G, the self-cleavage stood at 0.34.

With G1U A33G, the self-cleavage is 0.79.

On to A36C A59G, for which the self-cleavage is 1.68.

On to U12C A111G, for which the self-cleavage is 0.03.

C25U A33G: the self-cleavage was found to be 1.12.

Turning to U39A A125U, the self-cleavage is 2.5.

Regarding C109A A117G, the self-cleavage was found to be 0.59.

As to A86G U100C, the self-cleavage was found to be 2.12.

For the variant A4G A116U, the self-cleavage is 0.26.

Take U103C A111G: the self-cleavage worked out at 0.02.

Consider A114C A129G, for which the self-cleavage is 0.01.

Regarding A89C C107U, the self-cleavage was determined as 0.04.

With U39C A126U, the self-cleavage is 1.06.

On to U3A U131C, for which the self-cleavage came to 0.64.

As to C61U A98G, the self-cleavage was determined as 0.45.

Take U43G A129G: the self-cleavage came to 1.19.

With U2C U38C, the self-cleavage is 1.09.

For U19C A78U, the self-cleavage turned out to be 0.28.

As for A89U C121U, the self-cleavage is 2.24.

Regarding C61U A63G, the self-cleavage is 2.17.

In the case of A54G U57G, the self-cleavage is 0.2.

In the case of U38A U124A, the self-cleavage was 0.87.

With A118U A129G, the self-cleavage turned out to be 0.85.

A94G A96U: the self-cleavage came to 0.68.

For A18G G104A, the self-cleavage is 0.02.

Regarding A90U A114U, the self-cleavage was 0.04.

For the variant A22U U122A, the self-cleavage was 1.33.

For A5G A33G, the self-cleavage worked out at 0.67.

As to U39C A52U, the self-cleavage is 2.16.

For U103C A118U, the self-cleavage worked out at 0.3.

With U102C U131C, the self-cleavage stood at 2.13.

G8A A23G: the self-cleavage came to 1.58.

For U122C U139C, the self-cleavage was 0.78.

As for U26A U139A, the self-cleavage worked out at 1.05.

With A82G A94U, the self-cleavage was found to be 0.64.

On to C35U U57C, for which the self-cleavage came to 0.58.

In the case of A86G A110U, the self-cleavage came out at 1.06.

Turning to A23G U49G, the self-cleavage came out at 1.02.

As to U127A A134U, the self-cleavage was found to be 1.36.

Take A55G C101U: the self-cleavage came out at 0.38.

On to A24U A56G, for which the self-cleavage amounted to 2.25.

In the case of G74A A78G, the self-cleavage is 0.21.

Take U38G A62C: the self-cleavage was 0.78.

Consider A33U A51C, for which the self-cleavage amounted to 2.09.

In the case of A24G G79A, the self-cleavage stood at 0.18.

In the case of U37A U70C, the self-cleavage was determined as 1.21.

Consider A11G U132C, for which the self-cleavage is 1.21.

In the case of A47U A51G, the self-cleavage is 0.86.

Turning to A36G A69G, the self-cleavage was 1.37.

With C32U A54G, the self-cleavage is 1.37.

Turning to U49A G138U, the self-cleavage came to 1.69.

In the case of U26C A118G, the self-cleavage came out at 2.14.

In the case of G14A A64G, the self-cleavage stood at 1.06.

As to A36G A51G, the self-cleavage was found to be 0.9.

Take C81U U127C: the self-cleavage was 0.22.

As to A5G C35U, the self-cleavage worked out at 1.59.

For C61U G106U, the self-cleavage came to 0.04.

Turning to G50A U100G, the self-cleavage is 0.96.

For the variant A52G A62U, the self-cleavage was determined as 1.2.

Take G58U A89U: the self-cleavage stood at 1.46.

Regarding A27U U122C, the self-cleavage was determined as 1.42.

For the variant C17U A135G, the self-cleavage is 1.05.

On to U43A A54G, for which the self-cleavage was 0.83.

For the variant U3C A11G, the self-cleavage was determined as 1.34.

In the case of A30C A89G, the self-cleavage stood at 1.34.

Take U49C A62U: the self-cleavage stood at 0.68.

Consider A92G U100C, for which the self-cleavage came to 1.84.

Regarding A22G A91U, the self-cleavage is 1.06.

A24C G80A: the self-cleavage worked out at 0.19.

Consider G7U G138C, for which the self-cleavage worked out at 2.14.

A5G C85U: the self-cleavage was found to be 0.92.

In the case of C128G, the self-cleavage was found to be 0.45.

In the case of U43C A95G, the self-cleavage is 2.15.

In the case of G44A A111G, the self-cleavage amounted to 0.01.

In the case of U43A U97C, the self-cleavage is 0.92.

Consider A56G U132C, for which the self-cleavage worked out at 0.6.

Turning to U49A A94G, the self-cleavage is 1.11.

As to C105A U131C, the self-cleavage was found to be 0.05.

Take G106A A125U: the self-cleavage came out at 0.05.

In the case of U26C A117G, the self-cleavage was 1.36.

For the variant A22G U39G, the self-cleavage was determined as 1.41.

Regarding G15C A51U, the self-cleavage turned out to be 1.07.

As to A117G A135G, the self-cleavage came to 2.66.

In the case of A24G A60G, the self-cleavage is 0.89.

Regarding U37C A47G, the self-cleavage came out at 1.19.

Turning to G29A A78U, the self-cleavage was 0.14.

As for A59G C113U, the self-cleavage is 0.03.

A47G A59U: the self-cleavage came to 1.56.

With U37C A116G, the self-cleavage was 0.98.

In the case of U9G A59G, the self-cleavage is 1.

C45U U132A: the self-cleavage was 1.05.

A59G A66U: the self-cleavage turned out to be 1.75.

For the variant A66G U122G, the self-cleavage is 2.19.

For the variant U108C A111U, the self-cleavage amounted to 0.

Take A86G A116U: the self-cleavage was 0.36.

A4C A24U: the self-cleavage turned out to be 0.5.

Consider U70C A125G, for which the self-cleavage turned out to be 0.19.

As to G31C A55U, the self-cleavage came out at 1.76.

Take A52G C85U: the self-cleavage worked out at 0.87.

In the case of A36G A59G, the self-cleavage amounted to 1.75.

Regarding U12A G138A, the self-cleavage is 1.5.

As to A24C U26C, the self-cleavage worked out at 1.52.

For the variant A60G U127C, the self-cleavage worked out at 0.93.

Consider U38C U103C, for which the self-cleavage amounted to 1.18.

Consider A60G A63C, for which the self-cleavage came to 1.48.

Turning to C46U A118U, the self-cleavage was 0.76.

As for G28U A69G, the self-cleavage worked out at 1.57.

On to A24C A51G, for which the self-cleavage amounted to 1.23.

Consider G48A A95G, for which the self-cleavage was found to be 1.29.

As for U38C A62U, the self-cleavage was found to be 1.06.

Take A62G A69U: the self-cleavage was determined as 1.87.

Turning to A62G A69G, the self-cleavage came out at 0.68.

As to G104A A116U, the self-cleavage was 0.

A90U U100A: the self-cleavage was 0.15.

With U3C A18G, the self-cleavage came out at 1.02.

On to U12C A82G, for which the self-cleavage stood at 0.76.

Regarding U37C A67G, the self-cleavage is 0.68.

In the case of A82C A118G, the self-cleavage stood at 0.11.

On to A47U A98G, for which the self-cleavage turned out to be 0.16.

Consider A78G A129G, for which the self-cleavage came to 0.

For A33G A134G, the self-cleavage came out at 0.52.

As for U19C A95G, the self-cleavage came to 1.58.

With U39C G106U, the self-cleavage was 0.02.

Turning to G79A A134G, the self-cleavage turned out to be 0.09.

In the case of A13U A110G, the self-cleavage was determined as 0.08.

Consider G7A A27U, for which the self-cleavage was 0.85.

Take A59G C105U: the self-cleavage was 0.17.

A68G C88U: the self-cleavage was 1.57.
